Assay results published in paper PMC4958273, “Expression and preliminary characterization of human MICU2” (Biology Open, 2016).

Target: the molecule itself
Test: SEC-MALS; Ca2+-bound condition (5 mM CaCl2); protein at 0.5-2.5 mg/ml, 200 µl injected, KW-G and KW-803 columns, 0.5 ml/min; monomer to dimer

B1: MICU2-NΔ84-CΔ28 (domain or fragment, human, UniProt Q8IYU8 84-406, looked up)
chain: SLRKQRFMQFSSLEHEGEYYMTPRDFLFSVMFEQMERKTSVKKLTKKDIEDTLSGIQTAGCGSTFFRDLGDKGLISYTEYLFLLTILTKPHSGFHVAFKMLDTDGNEMIEKREFFKLQKIISKQDDLMTVKTNETGYQEAIVKEPEINTTLQMRFFGKRGQRKLHYKEFRRFMENLQTEIQEMEFLQFSKGLSFMRKEDFAEWLLFFTNTENKDIYWKNVREKLSAGESISLDEFKSFCHFTTHLEDFAIAMQMFSLAHRPVRLAEFKRAVKVATGQELSNNILDTVFKIFDLDGDECLSHEEFLGVLKNRMHRGLWVPQHQS
notes: human MICU2 (BC031089.1), N-terminal deletion starting at amino acid 84, the C-terminal 28 amino acids deleted; lacks Cys413; Predicted molecular weight ~40 kDa; source: E. coli BL21 (DE3); purified (Ni-NTA, SEC) for MALLS; in lysate (cells mixed and sonicated together) for the pull-down; not shown: His-tag, N-terminal, kept
In the case of B1, the “stoichiometry N” value is reported as 2.
